Laboratory results from patent US20220017601A1 (JIANGSU HENGRUI MEDICINE, published 2022).

Experiments:
human TGF-β1 [1] = target: T1, human TGF-β1 (human, UniProt P01137 279-390); assay: ELISA, plate coated with human TGF-β1, anti-human Fc-HRP, OD 450 nm
T1 construct: Bought protein; also called Human TGF-β1 (8915LC, CST); human TGF-β1 (R&D, 240-B-010)
Protocol: a. […] Washing 3 times with 250 μl of 1×PBST, 250 μl of 5% milk PBS was added for blocking at 37° C. for 2 hours. c. […] Washing 3 times with 250 μl 1×PBST. e. 100 μl of Anti-human Fc antibody-HRP (1:4000) was added to each well and incubated for 40 minutes at 37° C. f. 100 μl of TMB was added into each well, incubated for 10 minutes at room temperature, and the reaction was stopped by adding 100 μl of 1 M H₂SO₄. g. The absorbance at 450 nm was measured on a microplate reader, and the data was analyzed by Graphpad Prism 5.

[2] = target: human PD-L1 on CHO/PD-L1 cells (CS187108, Promega) (human, UniProt Q9NZQ7 19-290); assay: cell-based or functional assay
human TGF-β1 [3] = target: T1, human TGF-β1; assay: cell-based or functional assay

T1 sequence (P01137 279-390 limits assumed): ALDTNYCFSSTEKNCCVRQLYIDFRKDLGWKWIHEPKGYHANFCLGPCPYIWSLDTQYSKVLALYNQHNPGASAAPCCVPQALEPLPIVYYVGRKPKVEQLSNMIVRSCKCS
Chain of human PD-L1 on CHO/PD-L1 cells (CS187108, Promega) (Q9NZQ7 19-290): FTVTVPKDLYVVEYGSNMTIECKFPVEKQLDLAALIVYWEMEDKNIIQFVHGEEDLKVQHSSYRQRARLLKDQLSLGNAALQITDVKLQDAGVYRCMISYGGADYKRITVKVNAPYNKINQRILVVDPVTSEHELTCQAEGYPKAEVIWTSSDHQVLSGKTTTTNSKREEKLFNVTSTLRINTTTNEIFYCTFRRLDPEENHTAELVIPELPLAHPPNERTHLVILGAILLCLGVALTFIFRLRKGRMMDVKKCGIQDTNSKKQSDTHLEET

B1: PD-L1 antibody (antibody, human IgG4 S228P, kappa, F234A L235A, V domains shown)
VH: QVQLVQSGAEVKKPGASVKVSCKASGYTFTSYWMHWVRQAPGQGLEWMGRIGPNSGFTSYNEKFKNRVTMTRDTSTSTVYMELSSLRSEDTAVYYCARGGSSYDYFDYWGQGTTVTVSS
VL: DIVLTQSPASLAVSPGQRATITCRASESVSIHGTHLMHWYQQKPGQPPKLLIYAASNLESGVPARFSGSGSGTDFTLTINPVEAEDTANYYCQQSFEDPLTFGQGTKLEIKR
notes: Human IgG4 with S228P, F234A, L235A and the C-terminal K mutated to A; also called Ab; PD-L1 antibody IgG4 (AA) (S228P)
B1 was tested, and the binding result (human TGF-β1 [1]) was “no binding (tested: 1e6 pM (Log(pM) 6))”, the “EC50 (read off the curve), luminescence of the PD-1/PD-L1 blockade reporter assay” value [2] was roughly 0.3 nM and the “TGFβ-induced pSMAD3 reporter activity (luciferase, HepG2 cells), IC50” value (human TGF-β1 [3]) was greater than 500 nM.
